Data from PMC5389574 (Nucleic Acids Research, 2016).

Target: T1, recombinant Rpb4/Rpb7-6His (S. cerevisiae, UniProt P20433 1-221; P34087 1-171)
T1 sequence (looked up) 1: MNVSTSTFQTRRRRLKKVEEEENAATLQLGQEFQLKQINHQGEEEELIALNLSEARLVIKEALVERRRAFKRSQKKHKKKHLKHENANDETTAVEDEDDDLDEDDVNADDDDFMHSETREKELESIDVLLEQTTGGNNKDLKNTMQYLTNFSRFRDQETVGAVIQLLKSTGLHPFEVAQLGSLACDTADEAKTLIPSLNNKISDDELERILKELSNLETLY
T1 sequence (looked up) 2: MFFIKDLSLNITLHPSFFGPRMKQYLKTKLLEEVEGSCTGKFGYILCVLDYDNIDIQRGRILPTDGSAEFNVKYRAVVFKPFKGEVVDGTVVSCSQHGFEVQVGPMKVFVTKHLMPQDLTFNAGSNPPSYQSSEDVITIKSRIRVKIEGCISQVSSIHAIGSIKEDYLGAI
Assay: pull-down

- binding result: binds
B1: recombinant Sub1 (natural protein, S. cerevisiae, UniProt P54000 1-292, looked up)
chain: MSYYNRYRNKRRSDNGGGNLSNSNNNNGGMPSGLSASDAIFDLGKNKRVTVRQFRNINLIDIREYYLDSSTGEMKPGKKGISLTEDLYDELLKHRLNIDEALRRLGSKRPKTKMVRLLSDDEYEDDNNNDSTNNDKDKNGKDKNSPKKRREDKSKASNESHDLEPRSKKKKPAPPTLLPHEENIQNAEREANATLIIPGQAGRKQQEERKQKEKEEAEEAKAKAVAEQEKEAKAKEKIAEPEPEPVPTLQAKKEDIVSNINESKDANSSDEEFAQSLEAEMNKAEDDISEEE
